In US11517591B2, “Immunogenic peptides specific to BCMA and TACI antigens” (Dana-Farber Cancer Institute, Inc., priority 2017, dated 2022):

Assays:
tumor cells = test: Combination of peptide stimulation/vaccination with immune modulatory drugs, peptide-specific CTL activity; type: cell-based, human; conditions: in combination with XBP1/CD138/CS1 peptide stimulation/vaccination
Text: Even in patients with refractory MINI relapsing after allotransplantation, long-lasting responses have been achieved with the infusion of donor lymphocytes (DLI). These early encouraging results of DLI have provided the framework for evaluation of active-specific immunotherapy approaches to treat MM. […] The success of vaccination depends on selection of the appropriate patient population, targeting antigens expressed selectively on tumor, and utilizing combination approaches to effectively induce and maintain antigen-specific memory anti-tumor immune responses. […] Importantly, these effects were confined primarily to antigen-specific CD45RO^+ memory CTL, with the most robust increases in IFN-γ and granzyme B production and CD8^+ T cell proliferation in response to tumor cells observed mainly within the specific CM subset.

HLA-A2 molecule [1] = target: T1, HLA-A2 molecule (Homo sapiens, UniProt P04439, D140Y/D185E/D98H/E176V/E277Q/G131W/G231S/I119V/I121R/I166T/I218V/L300P/L318F/N151K/N90K/P208A/P217A/Q86G/Q94H/R138H/R169H/T345S); test: HLA-A2 binding affinity assay on peptide-pulsed T2 cells (HLA-A2 up-regulation, flow cytometry MFI); conditions: for HLA-A2 affinity of heteroclitic TACI peptide compared to native peptide: Example 13, peptide doses 50 μg/ml and 100 μg/ml; for change in HLA-A2 binding affinity of heteroclitic BCMA peptide compared to native peptide: Example 12, n=3, p<0.05; for HLA-A2 specificity (up-regulation of HLA-A2 on T2 cells, MFI): native peptides 0-200 μg/ml, overnight, Example 3, FIGS. 2, 3; for HLA-A2 binding affinity of native BCMA peptides: Example 12, six native peptides; for HLA-A2 binding affinity, heteroclitic vs native peptide: Example 4, FIGS. 4 and 5
T1 construct: endogenous in cells; host or cells: T2 cell line (human B and T cell hybrid), provided by Dr. J. Molldrem
Experimental: The listed BCMA peptides were evaluated for HLA-A2-specific binding capacity using the T2 cell line. In the assay, T2 cells were washed, resuspended in serum-free AIM-V medium to a final concentration of 1×10^6 cells/ml and transferred into wells of a 24-well tissue culture plate. The cells were pulsed with different concentrations of respective BCMA peptide (0-200 μg/ml) plus 3 μg/ml human β2-microglobulin (Sigma) and incubated at 37° C., 5% CO2 in humidified air. Following overnight incubation, the cells were washed, stained with mouse anti-human HLA-A2-FITC mAb for 15 minutes at 4° C., washed and analyzed using a FACSort™ flow cytometer with CellQuest™ v2.1 software (Becton Dickinson, San Jose, Calif.). […] Among the BCMA peptides evaluated, “#4. […] (FIG. 2).
(§1) T2 cells were pulsed overnight with various doses of peptide plus β2-microglobulin (3 μg/ml) (Sigma, St Louis, Mo.). Following overnight incubation, the cells were stained with HLA-A2-PE mAb and analyzed using a FACSCanto™ flow cytometer (BD). Peptide/HLA-A2 complex stability was measured on peptide loaded T2 cells at 0, 2, 4, 6 and 14 hours post-brefeldin A treatment by staining with HLA-A2-PE mAb and flow cytometric analysis.
as §1, with “concentrations” for “doses”, “The stability of peptide/HLA-A2” for “Peptide/HLA-A2”, “binding” for “stability”, “treatment followed” for “treatment”

[2] = test system: patients with smoldering MM (SMM); test: Clinical trials of XBP1/CD138/CS1 multipeptide vaccine in smoldering MM; type: in vivo, human; conditions: multipeptide vaccine in combination with lenalidomide
Text: Due to the encouraging preclinical results, the XBP1/CD138/CS1 multipeptide vaccine has been evaluated, alone and in combination with lenalidomide, in clinical trials to treat patients with smoldering MM (SMM), as well as in combination with anti-PD1 in clinical trials to treat patients with triple negative breast cancer. […] Although stable disease and responses have been observed in SMM, randomized trials are needed to assess whether time to progression from SMM to active disease can be prolonged by the peptide vaccination.

HLA-A2 molecule [3] = target: T1, HLA-A2 molecule; test: Peptide/HLA-A2 complex stability on peptide-loaded T2 cells post-brefeldin A; type: binding
Experimental: The native and heteroclitic BCMA and TACI peptides were examined for HLA-A2 binding stability using the T2 cell line. T2 cells were pulsed with the respective peptide. After overnight incubation, the cells were washed to remove unbound peptide; they were evaluated for binding affinity as shown above and stability as following. The cells were incubated with 10 μg/ml Brefeldin A (Sigma) at 37° C. and 5% CO2 for 1 hour to block cell surface expression of newly synthesized HLA-A2 molecules. Peptide/HLA-A2 binding stability was evaluated at 0, 2, 4, 6 and 18 hours post-Brefeldin A treatment. Following the incubation period, the cells were harvested, washed, stained with mouse anti-human HLA-A2-FITC mAb and analyzed by flow cytometry. […] Therefore, the Heteroclitic #4 BCMA72-80 (YLMFLLRKI (SEQ ID NO: 13)) and Heteroclitic #3. TACI154-162 (YLSADQVAL (SEQ ID NO: 16) peptides were selected for further evaluation of their immunogenic potential to generate MM-specific cytotoxic T cells (CTLs).
as §1
as §1, with “concentrations” for “doses”, “The stability of peptide/HLA-A2” for “Peptide/HLA-A2”, “binding” for “stability”, “treatment followed” for “treatment”

[4] = test system: CD3+ T cells obtained from HLA-A2+ donors; test: Induction and phenotypic analysis of peptide-specific CTL by repeated peptide stimulation; type: cell-based, human
Experimental: The peptide-specific CTL were generated from different HLA-A2^+ normal donors for the evaluation of the functional activities targeting MM cell lines. To generate the peptide-specific CTL, mature dendritic cells (mDC) generated from the same donor were resuspended in serum-free AIM-V media and pulsed with 50 μg/ml of the Heteroclitic #4 BCMA72-80 (YLMFLLRKI (SEQ ID NO: 13)) peptide or “Heteroclitic #3 TACI154-162 (YLSADQVAL (SEQ ID NO: 16))” peptide, overnight at 37° C., 5% CO2 in humidified air. The peptide-pulsed mDC were washed, counted, irradiated at 10 Gy and used to prime CD3^+ T cells at a 1:20 antigen-presenting cells/peptide-to-CD3^+ T cell ratio in AIM-V media supplemented with 10% human AB serum. […] To maintain the T cells ex vivo, IL-2 (50 U/ml) was added to the cultures two days after the second stimulation. Control T cell cultures were maintained under the same culture conditions in the presence of IL-2 (50 U/ml), but without peptide stimulation. Phenotype of the resulting CTL was evaluated one week after each cycle of peptide stimulation. […] The BCMA peptide-specific CTL cultures contained a higher percentage of CD8^+ T cells (˜80%) upon 4 cycle of peptide stimulation compared to non-peptide stimulated control T cells (˜20%) (FIGS. 8A-8C).
Antigen-specific CTL can be phenotypically identified as activated/memory T cells from naïve T cells by their expression of distinct cell surface antigens. The phenotype of the BCMA-CTL were examined as potential effector cells by analyzing the phenotype of naïve and memory cells. BCMA peptide-specific CTL were generated by repeated stimulation of HLA-A2^+ normal donor's CD3^+ T cells weekly with antigen-presenting cells pulsed with 50 μg/ml heteroclitic BCMA72-80 (YLMFLLRKI (SEQ ID NO: 13)). One week after each peptide stimulation, the resulting CTL were evaluated for their phenotypic profile by flow cytometry.
BCMA peptide-specific CTL (BCMA-CTL) were generated ex vivo by repeated stimulation of CD3^+ T cells obtained from HLA-A2^+ donors with peptide-pulsed antigen-presenting cells (APC). In brief, peptide (50 μg/ml)-pulsed APC were irradiated (10 Gy) and used to stimulate T cells at a 1 APC/peptide: 20 T cell ratio. The T cell cultures were restimulated every 7 days and maintained in AIM-V medium supplemented with 10% human AB serum (BioWhittaker) in the presence of IL-2 (50 units/ml).
Phenotypic characterization was performed on BCMA-CTL after staining with Live/Dead Aqua stain kit and fluorochrome conjugated anti-human mAbs and Tetramer-PE. Alternatively, the MM and breast cancer cell lines were stained with fluorochrome-conjugated BCMA or HLA-A2 mAb. After staining, the cells were washed, fixed in 2% paraformaldehyde, and analyzed by flow cytometry.
TACI peptide-specific CTL (TACI-CTL) were generated ex vivo by repeated stimulation of enriched CD3^+ T cells obtained from HLA-A2^+ donors with peptide-pulsed antigen-presenting cells (APC). In brief, peptide (50 μg/ml)-pulsed APC were irradiated (10 Gy) and used to stimulate T cells at a 1:20 APC/peptide-to-T cell ratio. The T cell cultures were restimulated every 7 days and maintained in AIM-V medium supplemented with 10% human AB serum (BioWhittaker) in the presence of IL-2 (50 units/ml).
Phenotypic characterization was performed on the MM target cells to conform TACI expression. Phenotypic characterization was performed on the TACI-CTL after staining with Live/Dead Aqua stain kit and fluorochrome conjugated anti-human mAbs. After staining, the cells were washed, fixed in 2% paraformaldehyde, and analyzed by flow cytometry.

[5] = after 3 cycles of peptide stimulation
[6] = after 4 cycles of peptide stimulation

O=C(CCCCCCNC(=O)c1cnc(N(c2ccccc2)c2ccccc2Cl)nc1)NO [ACY241]
peptides-specific CTL activities against tumor cells (tumor cells): enhanced the peptides-specific CTL activities against tumor cells

YLVAVACFL [heteroclitic TACI178-186, heteroclitic TACI peptide]
HLA-A2 affinity of heteroclitic TACI peptide compared to native peptide (HLA-A2 molecule [1]): no significant improvement in HLA-A2 affinity

Nc1cccc2c1CN(C1CCC(=O)NC1=O)C2=O (stereo not drawn) [lenalidomide]
peptides-specific CTL activities against tumor cells (tumor cells): enhanced the peptides-specific CTL activities against tumor cells | CD8+ T cells with tetramer-positivity and IFN-γ production [2]: triggered higher mean fold increases in CD8^+ T cells with tetramer-positivity and IFN-γ production

YQNEYFDSL [heteroclite BCMA9-17, heteroclitic BCMA peptide]
change in HLA-A2 binding affinity of heteroclitic BCMA peptide compared to native peptide (HLA-A2 molecule [1]): did not alter its HLA-A2 affinity status

TLGLCLCAV [TACI166-174 (TLGLCLCAV), native TACI peptide]
HLA-A2 affinity of native TACI peptides (HLA-A2 molecule [1]; Example 13, six native peptides): highest level of affinity | HLA-A2 specificity (up-regulation of HLA-A2 on T2 cells, MFI) (HLA-A2 molecule [1]): highest level

SQNEYFDSL [BCMA9-17 (SQNEYFDSL), native BCMA peptide]
HLA-A2 binding affinity of native BCMA peptides (HLA-A2 molecule [1]): non-HLA-A2 specific

YLGLCLCAV [heteroclitic TACI166-174, heteroclitic TACI peptide]
HLA-A2 affinity of heteroclitic TACI peptide compared to native peptide (HLA-A2 molecule [1]): no significant improvement in HLA-A2 affinity

AILWTCLGL [BCMA54-62 (AILWTCLGL), native BCMA peptide]
HLA-A2 binding affinity of native BCMA peptides (HLA-A2 molecule [1]): highest HLA-A2 binding affinity in a dose-dependent manner | HLA-A2 specificity (up-regulation of HLA-A2 on T2 cells, MFI) (HLA-A2 molecule [1]): second highest level of the specificity

YLSADQVAL [heteroclitic TACI154-162, heteroclitic TACI peptide]
HLA-A2 binding stability, heteroclitic vs native peptide (HLA-A2 molecule [3]; 50 ug/ml, 0, 2, 4, 6 and 18 hours post-Brefeldin A, Example 4, FIGS. 6 and 7): significant improvement in their HLA-A2 affinity at all the time points evaluated | HLA-A2 binding affinity (time=0) and stability compared to native peptide (HLA-A2 molecule [3]; TACI peptides 50 μg/ml, 2, 4, 6 and 18 hours): highest HLA-A2 binding affinity (time=0) and stability (2, 4, 6 and 18 hours) | HLA-A2 binding affinity, heteroclitic vs native peptide (HLA-A2 molecule [1]): increased from their native peptide | HLA-A2 affinity of heteroclitic TACI peptide compared to native peptide (HLA-A2 molecule [1]): greatly enhanced affinity from its native form | CM CD8+ T cells [4, 5]: 47.8% | EM CD8+ T cells [4, 5]: 52.4% | Naïve CD8+ T cells [4, 5]: 2.2% | CM CD8+ T cells [4, 6]: 24.4% | EM CD8+ T cells [4, 6]: 74.1% | Naïve CD8+ T cells [4, 6]: 0.72% | frequency of effector memory (CD45RO+/CCR7-) CD3+CD8+ T cells [4, 6]: increased | CM CD8+ T cells ([4]; after 5 cycles of stimulation): 7.36% | EM CD8+ T cells ([4]; after 5 cycles of stimulation): 69.7% | Naïve CD8+ T cells ([4]; after 5 cycles of stimulation): 0.57%

YILWTCLGL [heteroclitic hBCMA54-62, heteroclitic BCMA peptide]
HLA-A2 stability of heteroclitic vs native BCMA peptide (HLA-A2 molecule [3]; Example 12): further enhanced | HLA-A2 binding affinity, heteroclitic vs native peptide (HLA-A2 molecule [1]): increased from their native peptide | change in HLA-A2 binding affinity of heteroclitic BCMA peptide compared to native peptide (HLA-A2 molecule [1]): highest increase in HLA-A2 binding affinity

VLMFLLRKI [BCMA72-80 (VLMFLLRKI), native BCMA peptide]
HLA-A2 binding affinity of native BCMA peptides (HLA-A2 molecule [1]): highest HLA-A2 binding affinity in a dose-dependent manner | HLA-A2 specificity (up-regulation of HLA-A2 on T2 cells, MFI) (HLA-A2 molecule [1]): highest level of HLA-A2 specificity
